Source: article doi:10.1101/2022.08.07.503104
pKd: −log10 of the molar value.

How the values were obtained:
[1] = biological target: CypA-CA complex formed beforehand (human | HIV-1) (UniProt P62937); assay: MST
[2] = biological target: Recombinant Tat (86 residues, BH10 isolate) (HIV-1 (BH10 isolate)) (UniProt P69697); assay: SPR
[3] = biological target: Tat-CypA complex formed beforehand (HIV-1 (BH10 isolate) | human) (UniProt P69697); assay: SPR
[4] = biological target: Tat-CypA complex formed beforehand (HIV-1 (BH10 isolate) | human) (UniProt P69697); assay: MST
[5] = biological target: Recombinant human CypA (human) (UniProt P62937); assay: MST

Substance “Recombinant Tat (86 residues, BH10 isolate) (from UniProt P69697 1-86) (natural protein)” has a pKd [1] of 7.26.
For “CypA-CA complex formed beforehand (from UniProt P62937 1-165)”, the pKd [2] was 7.02.
“Recombinant HIV-1 capsid protein (CA) (natural protein)” gave a pKd [3] of 6.96, a pKd [4] of 5.26 and a pKd [5] of 5.08.
